Source: PMC10009750, “Development of Selective ADAMTS-5 Peptide Substrates to Monitor Proteinase Activity” (Journal of Medicinal Chemistry, 2023)
Non-standard residues stand in square brackets, D forms with d. No end group written: not given here. Tyr(3-NO2) = N[C@@H](Cc1ccc(O)c([N+](=O)[O-])c1)C(=O)O; 2Abz = Nc1ccccc1C(=O)O

Legend:
Type in all cases: biochemical
[1] = target: T1, TS5-5 (combined catalytic and disintegrin domain of ADAMTS-5) (Homo sapiens, UniProt Q9UNA0); test: Cleavage of FRET peptide substrates by TS5-5 in solution (activity/selectivity studies); details: substrate 20 μM, 37 °C
T1 construct: ADAMTS-5 (i.e. TS5-5, residues 264–555); FLAG; made in house; host or cells: HEK293 cells (previously transfected stocks)
T1 sequence (Q9UNA0 264-555): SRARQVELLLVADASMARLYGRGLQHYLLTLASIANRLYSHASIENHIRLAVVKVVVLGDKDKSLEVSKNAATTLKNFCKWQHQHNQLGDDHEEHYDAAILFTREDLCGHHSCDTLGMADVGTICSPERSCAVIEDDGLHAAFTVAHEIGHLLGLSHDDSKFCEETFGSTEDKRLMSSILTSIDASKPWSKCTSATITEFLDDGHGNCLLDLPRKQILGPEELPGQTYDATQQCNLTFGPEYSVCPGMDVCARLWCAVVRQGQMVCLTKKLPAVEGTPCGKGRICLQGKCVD
Experimental: (§1) All proteinase assays were performed at 37 °C in a SpectraMax M5 spectrophotometer (Molecular Devices, San Jose, USA) using a 96-well black microplate (Greiner bio-one, Stonehouse, UK) unless otherwise stated. […] N-TIMP-3 was purified as described previously[30] and CT-1746 was a gift from Dr. Yoshifumi Itoh (Kennedy Institute of Rheumatology, University of Oxford). All analyses were carried out using Prism 9 software (GraphPad, La Jolla, CA, USA).
To test whether active TS5-5 had been purified, three concentrations of proteinase were assayed. A solution of Abz-TESE↓SRGAIY-Dpa-KK-NH2 (22.22 μM) in freshly prepared TNC buffer with 0.02% (v/v) Brij-35 (180 μL) was added to a 96-well black microplate in triplicate for each proteinase concentration. A substrate-only background control was also added in triplicate (180 μL). The resultant solutions were incubated at 37 °C (30 min). TS5-5 proteinase in TNC buffer with 0.02% (v/v) Brij-35 (20 μL) was added to wells to give final proteinase concentrations of 80 nM, 40 nM and 20 nM. TNC buffer with 0.02% (v/v) Brij-35 (20 μL) was also added to background control wells. The change in RFU was measured at 37 °C for 1 h, with readings every 20 s. Following subtraction of background fluorescence intensity, linear regression analysis of the linear part of each curve was used to determine the cleavage rate, which was expressed as the mean ± SEM in RFU s^–1. For cases where a single concentration of TS5-5 or TS4-4 was assayed, the same procedure was used but with 0.005% (v/v) Brij-35 and using the 5-FAM-AE↓LQGRPISIAK-TAMRA substrate for TS4-4 (0.56 μM). To convert cleavage rates to nM s^–1 nM^–1, the rate in RFU s^–1 was divided by the final concentration of proteinase (nM), then divided by the gradient of the calibration curve for Abz or 5-FAM (expressed in RFU nM^–1).
(§2) Selectivity studies are described for Abz-TESE↓SRGAIY-Dpa-KK-NH2, the library parent peptide 3, and hit peptides 18–26. A solution of Abz-TESE↓SRGAIY-Dpa-KK-NH2 (22.22 μM) in freshly prepared TNC buffer with 0.005% (v/v) Brij-35 (90 μL) was added to a 96-well clear bottom microplate (Greiner bio-one, Stonehouse, UK) in triplicate. A substrate-only background control was also added in triplicate (90 μL). The resultant solutions were incubated at 37 °C (30 min). An ADAMTS or MMP proteinase was added to substrate wells (10 μL) to give a final proteinase concentration of either 50–90 nM (TS4-4), 25–200 nM (TS5-5), 5–10 nM (MMP-2ΔC), 30 nM (MMP-9ΔC), 92 nM (MMP-1), or 3 μM (MMP-3). TNC buffer with 0.005% (v/v) Brij-35 was added to substrate-only control wells (10 μL). The relative fluorescence intensity was measured at 37 °C for 1 h with readings every 20 s. Activity was read from underneath the microplate, which was covered with a low evaporation lid. […] For each ADAMTS and MMP proteinase, the assay was performed 2–4 times. […] Final rates were expressed as a percentage of substrate cleavage by TS5-5 (mean ± SEM) or in μM s^–1 μM^–1 of proteinase.

[2] = target: T2, MMP-2ΔC (catalytic domain of MMP-2) (Homo sapiens, UniProt P08253); test: Selectivity studies: cleavage of FRET peptide substrates by MMP-2ΔC; details: substrate 20 μM, MMP-2ΔC 5–10 nM, TNC buffer with 0.005% (v/v) Brij-35, 37 °C; mean of 3–4 independent experiments in triplicate
T2 construct: the catalytic domain of MMP-2, i.e., MMP-2ΔC; made in house; host or cells: HEK293 cells (previously transfected stocks)
T2 sequence (P08253 110-465 limits assumed, stated change not applied): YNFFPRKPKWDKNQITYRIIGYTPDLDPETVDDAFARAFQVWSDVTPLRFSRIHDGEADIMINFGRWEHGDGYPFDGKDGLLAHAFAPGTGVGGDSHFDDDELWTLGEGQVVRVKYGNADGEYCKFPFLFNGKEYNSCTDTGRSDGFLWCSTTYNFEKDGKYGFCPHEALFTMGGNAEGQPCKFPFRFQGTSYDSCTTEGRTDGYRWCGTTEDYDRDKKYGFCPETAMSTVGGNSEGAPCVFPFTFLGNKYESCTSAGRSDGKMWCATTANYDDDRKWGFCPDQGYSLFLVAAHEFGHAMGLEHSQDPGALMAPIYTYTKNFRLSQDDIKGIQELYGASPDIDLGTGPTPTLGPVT
Experimental: as §1, §2

MMP-1 (full length) = test: Selectivity studies: cleavage of the current substrate by MMP-1; details: substrate 20 μM, MMP-1 92 nM, up to 72 h, 37 °C; single triplicate experiment
Experimental: as §1
Selectivity studies are described for Abz-TESE↓SRGAIY-Dpa-KK-NH2, the library parent peptide 3, and hit peptides 18–26. A solution of Abz-TESE↓SRGAIY-Dpa-KK-NH2 (22.22 μM) in freshly prepared TNC buffer with 0.005% (v/v) Brij-35 (90 μL) was added to a 96-well clear bottom microplate (Greiner bio-one, Stonehouse, UK) in triplicate. A substrate-only background control was also added in triplicate (90 μL). The resultant solutions were incubated at 37 °C (30 min). […] The relative fluorescence intensity was measured at 37 °C for 1 h with readings every 20 s. Activity was read from underneath the microplate, which was covered with a low evaporation lid. […] Final rates were expressed as a percentage of substrate cleavage by TS5-5 (mean ± SEM) or in μM s^–1 μM^–1 of proteinase.

Substance | improvement in cleavage (overall cleavage rate) by TS5-5 compared to the current substrate [1] [fold] | rate of cleavage by MMP-2ΔC [2] [μM s^–1 μM^–1] | cleavage by MMP-1 (MMP-1 (full length))
KY(NO2)SENESRGK(Abz)IYYKKG (K[Tyr(3-NO2)]SENESRGK(2Abz)IYYKKG) [Compound 26] | ~3 | – | –
Abz-TESE↓SRGAIY-Dpa-KK-NH2 [current, ortho-aminobenzoyl(Abz)-TESE↓SRGAIY-N-3-[2,4-dinitrophenyl]-L-2,3-diaminopropionyl(Dpa)-KK-NH2, reference compound] | – | 0.56 | no cleavage was observed
KY(NO2)TESESRGK(Abz)IYYKKG (K[Tyr(3-NO2)]TESESRGK(Abz)IYYKKG) [Compound 3] | ~4 | – | –
